{"source": "paper PMC12282641", "key": {"[1]": {"experiment": "GCaMP6s imaging, 100 AP 10 Hz", "conditions": "glycan lost; control: WT-HK1-BFP"}, "[2]": {"experiment": "anti-HK1 blot of HEK293T lysates", "conditions": "glycan lost; control: WT-HK1"}, "[3]": {"experiment": "HYlight FBP sensor, axons, 100 AP 10 Hz", "conditions": "glycan lost; control: WT-HK1-FLAG"}, "[4]": {"experiment": "multi-electrode array, rat cortical neurons", "conditions": "glycan lost; control: WT-HK1"}, "[5]": {"experiment": "fractionation blots for Aldo A, PGK, PKM2, HEK293T", "conditions": "glycan lost; control: WT-HK1 cells, response to OGT + Thiamet-G"}, "[6]": {"experiment": "iATPSnFR1.0 imaging, hippocampal neurons, 100 AP 10 Hz", "conditions": "glycan lost; control: WT-HK1-BFP"}}}
{"protein": "Hexokinase 1 (HK1): T259A (protein) parent chain: MIAAQLLAYYFTELKDDQVKKIDKYLYAMRLSDETLIDIMTRFRKEMKNGLSRDFNPTATVKMLPTFVRSIPDGSEKGDFIALDLGGSSFRILRVQVNHEKNQNVHMESEVYDTPENIVHGSGSQLFDHVAECLGDFMEKRKIKDKKLPVGFTFSFPCQQSKIDEAILITWTKRFKASGVEGADVVKLLNKAIKKRGDYDANIVAVVNDTVGTMMTCGYDDQHCEVGLIIGTGTNACYMEELRHIDLVEGDEGRMCINTEWGAFGDDGSLEDIRTEFDREIDRGSLNPGKQLFEKMVSGMYLGELVRLILVKMAKEGLLFEGRITPELLTRGKFNTSDVSAIEKNKEGLHNAKEILTRLGVEPSDDDCVSVQHVCTIVSFRSANLVAATLGAILNRLRDNKGTPRLRTTVGVDGSLYKTHPQYSRRFHKTLRRLVPDSDVRFLLSESGSGKGAAMVTAVAYRLAEQHRQIEETLAHFHLTKDMLLEVKKRMRAEMELGLRKQTHNNAVVKMLPSFVRRTPDGTENGDFLALDLGGTNFRVLLVKIRSGKKRTVEMHNKIYAIPIEIMQGTGEELFDHIVSCISDFLDYMGIKGPRMPLGFTFSFPCQQTSLDAGILITWTKGFKATDCVGHDVVTLLRDAIKRREEFDLDVVAVVNDTVGTMMTCAYEEPTCEVGLIVGTGSNACYMEEMKNVEMVEGDQGQMCINMEWGAFGDNGCLDDIRTHYDRLVDEYSLNAGKQRYEKMISGMYLGEIVRNILIDFTKKGFLFRGQISETLKTRGIFETKFLSQIESDRLALLQVRAILQQLGLNSTCDDSILVKTVCGVVSRRAAQLCGAGMAAVVDKIRENRGLDRLNVTVGVDGTLYKLHPHFSRIMHQTVKELSPKCNVSFLLSEDGSGKGAALITAVGVRLRTEASS", "values": [{"measurement": "other: presynaptic calcium dynamics", "setting": "[1]", "result": "no change"}, {"measurement": "expression_or_secretion", "setting": "[2]", "result": "no change"}, {"measurement": "other: activity-evoked glycolysis (FBP level)", "setting": "[3]", "result": "abolishes"}, {"measurement": "other: neuronal network activity", "setting": "[4]", "result": "decreases"}, {"measurement": "other: glycolytic enzyme recruitment to mitochondria", "setting": "[5]", "result": "abolishes"}, {"measurement": "other: axonal ATP recovery after stimulation", "setting": "[6]", "result": "abolishes"}]}
